From US20110020361A1 (GOVERNMENT OF THE UNITED STATES OF AMERICA AS REPRESENTED …, published 2011)

Biological target: T1, recombinant human mesothelin (amino acids 296-600 of SEQ ID NO: 4) (human, UniProt Q13421 296-600)
T1 construct: Secreted from SF9 insect cells (baculovirus vector pAcGP67) and purified by nickel column and gel filtration; It was coated on ELISA plates and, biotin-labelled, used for panning; also called recombinant mesothelin; purified mesothelin
Experiment: ELISA, recombinant mesothelin coated on plate, anti-FLAG-HRP detection
Description: Antigen (mesothelin) diluted in PBS was coated on narrow-well 96-well plates at 50 ng/well overnight at 4° C. Wells were blocked with 100 μl of 4% milk/PBS (MPBS) for 1 hour at 37° C. […] Fifty μl of diluted Fab was added to duplicate wells. For competition ELISA, designated concentrations of competing IgG were included in all Fab solutions. After 2 hours of incubation at 37° C., the wells were washed with PBST (PBS+0.05% Tween 20) 4 times. […] Wells were washed again with PBST. Substrate ABTS was added (50 μl/well), and the reaction was read at A405 nm. For ELISA with IgG, a goat anti-human Fc IgG conjugated with HRP was used at 1:1000.

B1: Fab m912 (Fab, V domains shown)
VH: QVQLQESGPGLVKPSETLSLTCTVSGGSVSSGSYYWSWIRQPPGKGLEWIGYIYYSGSTNYNPSLKSRVTISVDTSKNQFSLKLSSVTAADTAVYYCAREGKNGAFDIWGQGTMVTVSS
VL: not shown
notes: Human Fab from a naive Fab phage library, expressed in E. coli HB2151; also called clone m912; mesothelin-specific antibody m912
EC50: 0.02 µM
